US20260191954A1, “COMPOSITIONS AND METHODS FOR NEOADJUVANT TREATMENT IN CANCER” (INNATE PHARMA, priority 2022, published 2026)
Entries after “also recorded” stand apart in the source; their conditions may differ.

T1: human CD39, membrane-bound, as expressed on cells (human, UniProt P49961 1-510)
T1 construct: On OAW42 cells, on monocytes and B cells of patients, in patients' tumour tissue, and in tissues of human CD39 knock-in mice; also called mCD39
T1 sequence: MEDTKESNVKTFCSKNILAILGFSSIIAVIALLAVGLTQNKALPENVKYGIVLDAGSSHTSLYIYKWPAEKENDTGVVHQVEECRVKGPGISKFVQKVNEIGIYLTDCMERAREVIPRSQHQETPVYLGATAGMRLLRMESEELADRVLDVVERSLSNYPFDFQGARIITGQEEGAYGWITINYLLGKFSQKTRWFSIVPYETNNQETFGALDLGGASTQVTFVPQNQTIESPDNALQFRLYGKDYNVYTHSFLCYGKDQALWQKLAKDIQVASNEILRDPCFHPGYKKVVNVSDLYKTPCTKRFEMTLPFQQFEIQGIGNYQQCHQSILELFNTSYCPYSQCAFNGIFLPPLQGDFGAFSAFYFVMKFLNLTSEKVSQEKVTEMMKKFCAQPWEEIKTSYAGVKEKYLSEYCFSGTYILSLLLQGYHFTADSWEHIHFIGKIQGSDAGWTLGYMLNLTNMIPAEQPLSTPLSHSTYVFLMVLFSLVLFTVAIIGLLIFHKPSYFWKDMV

T2: CD39 enzymatic activity (Homo sapiens, UniProt P49961)
T2 construct: genetically modified to express human CD39 in place of its murine counterpart mouse CD39; from tissue; host or cells: tissues (MCA205 tumours) of huCD39KI mice treated with moIPH5201
T2 sequence (P49961 1-510): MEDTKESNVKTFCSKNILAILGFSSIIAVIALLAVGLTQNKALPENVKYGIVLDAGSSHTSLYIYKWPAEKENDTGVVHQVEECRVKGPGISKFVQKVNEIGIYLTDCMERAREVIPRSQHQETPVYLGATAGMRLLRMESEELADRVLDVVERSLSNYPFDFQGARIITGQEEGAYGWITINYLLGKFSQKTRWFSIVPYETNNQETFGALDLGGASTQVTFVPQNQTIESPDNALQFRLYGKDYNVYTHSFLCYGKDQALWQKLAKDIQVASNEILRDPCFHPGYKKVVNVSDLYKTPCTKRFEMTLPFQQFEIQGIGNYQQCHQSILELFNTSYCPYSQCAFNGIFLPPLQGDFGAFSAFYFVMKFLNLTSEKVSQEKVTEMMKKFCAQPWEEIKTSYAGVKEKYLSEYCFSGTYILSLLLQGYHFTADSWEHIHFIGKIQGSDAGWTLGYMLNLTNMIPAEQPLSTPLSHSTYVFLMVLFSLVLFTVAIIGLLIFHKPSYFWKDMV


Assays:
[1] = biological target: T1, human CD39, membrane-bound, as …; assay: indirect response PD model (inhibition on Kin) fitted to free mCD39 on monocytes of treated patients; flow cytometry, free CD39 detected with a labelled antibody having the VH and VL of IPH5201
Excerpt: PK/PD modelling and simulation were used to guide selection of doses. IPH5201 PK data from 45 patients and PD data of free membrane CD39 (mCD39) occupancy on monocytes from 43 patients were available. A population PK model was developed with IPH5201 PK best described as a 2-compartment model with parallel linear and saturatable kinetics.
An indirect response PD model (inhibition on Kᵢₙ) was then built to describe the relationship between IPH5201 concentrations and free mCD39 on monocytes (FIG. 10). The model accurately predicted CD39free+ of monocytes (%). […] The final indirect response model was then used for parametric simulation.
To assess free CD39 on monocytes and B cells, blood samples are spiked with an antibody having the VH and VL of IPH5201 and a mouse Fc domain and labelled with a fluorochrome. A second non-competing anti-CD39 monoclonal antibody labelled with a distinct fluorochrome is used to bind to a site on CD39 distinct from the capture antibody. CD14, CD19 and CD45 are detected by incubation with anti-CD14, CD19 and CD45 monoclonal antibodies each labelled with a distinct fluorochrome. Binding is detected by flow cytometry.

[2] = test system: adenosine in MCA205 tumors; assay: Intratumoral adenosine in MCA205 tumors in huCD39KI mice (LC-MS/MS); format: in vivo, human CD39 knock-in (huCD39KI) mice; conditions: molPH5201 20 mg/kg on day 7 and 14; tumors harvested day 16; vs isotype control; FIG. 4
Experimental: Expression of human CD39 in MCA205 tumors engrafted in human CD39 knock-in (huCD39KI) mice was assessed, followed by measure of intratumoral levels of adenosine after in vivo treatment with molPH5201, an antibody having the VH and VL or SEQ ID NO NOS: 8 and 9 and murine constant domains including an Fc domain with amino acid substitutions to eliminate binding to mouse Fcγ receptors, in order to evaluate the reduction of adenosine levels in tumors by molPH5201 can reduce in vivo.
(§1) Human CD39 expression on MCA205 tumors harvested on day 16 post engraftment was evaluated by IHC with EPR20627 clone from Abcam B&C. MCA205 tumors were engrafted in huCD39KI mice. On day 7 and 14 post tumor implantation, they were treated with molPH5201 (20 mg/kg) or isotype control. On day 16, tumors were harvested. Results are shown in FIG. 4, left hand panel, showing that a significant percentage of cells express CD39.
Quantification of adenosine in the harvested MCA205 tumors was performed using pre-column derivatization and liquid chromatography-mass spectrometry (LC-MS/MS) as described by Goodwin et al. 2019 Anal Biochem 568:78-88.

CD39 enzymatic activity = biological target: T2, CD39 enzymatic activity; assay: Wachstein-Meisel CD39 enzyme assay on tissues of treated mice; format: in vivo, huCD39KI mice; conditions: tissues from molPH5201-treated animals; brown color indicates enzyme activity
Experimental: as §1
Blockade of CD39 enzymatic activity was determined using the Wachstein-Meisel CD39 enzyme assay (brown color indicates enzyme activity).

MC38 cancer cell line = assay: MC38 tumor growth in huCD39KI mice (gemcitabine +/- anti-PD-L1 +/- molPH5201); format: in vivo, human CD39 knock-in (huCD39KI) mice
Experimental: In vivo experiments were performed in human CD39 knock-in (huCD39KI) mice, genetically modified to express human CD39 in place of its murine counterpart mouse CD39. These mice were sub-cutaneously (s.c.) engrafted with the MC38 cancer cell line. Mice bearing established tumors were dosed with isotype control (IC) antibodies, anti-human CD39 antibody (molPH5201, described above), gemcitabine chemotherapy and anti-mouse PD-L1 antibody (an antibody that binds murine PD-L1 having an Fc domain with amino acid substitutions to eliminate binding to mouse Fcγ receptors.
Male and female huCD39KI mice were engrafted subcutaneously (s.c.) with 1×10^6 MC38 cancer cells. Treatments were initiated after mouse randomization. Mice were treated twice a week for two weeks with gemcitabine (25 mg/kg) or PBS (at day 8, 11, 15 and 18 after cell engraftment) and once a week for four weeks with either anti-human CD39 antibody (molPH5201) or the corresponding isotype control (IC) antibody (400 μg/mouse).
Randomization of mice into four groups was performed on day 7 post tumor cell engraftment, at a mean tumor volume of 72 mm^3±27 mm^3 with individual tumor volumes comprised between 37 and 130 mm^3.
(§2) Male and female huCD39KI mice were engrafted s.c. with 1×10^6 MC38. Treatments were initiated after mouse randomization. Mice were treated twice a week for two weeks with gemcitabine (25 mg/kg) or PBS, twice a week for three weeks with either anti-mouse PD-L1 antibody or the corresponding IC antibody (200 μg/mouse) and once a week for four or five weeks depending on the experiment with either anti-human CD39 antibody (molPH5201) or the corresponding IC antibody (400 μg/mouse). Mouse randomization into five groups was performed on day 7 post tumor cell engraftment at a mean tumor volume of 62 mm^3±23 mm^3 with individual tumor volumes comprised between 31 and 117 mm^3.
as §2, with “As in Experiment 1, male” for “Male”, “64” for “62”, “115” for “117”
as §2, with “As in Experiments 1 and 2, male” for “Male”, “engraftment,” for “engraftment”, “74 mm^3±21” for “62 mm^3±23”, “40” for “31”, “121” for “117”
The three experiments were pooled and results are shown in FIG. 9, showing Tumor growth of MC38 tumor in huCD39KI mice post treatment with gemcitabine+/−anti-PD-L1+/−molPH5201. MC38 tumor-bearing huCD39KI mice were randomized on day 7 and then treated as indicated with 25 mg/kg ip of gemcitabine or PBS, 200 μg ip of anti-mouse PD-L1 antibody or corresponding isotype control antibody and with 400 μg iv of molPH5201 or corresponding IC antibody. Graphs show tumor growth in each individual (n=31/group). CR: Complete Response.

Row | Molecule | IC50 [1] [µg/mL] | intratumoral adenosine compared to control [2] | CD39 enzymatic activity in tissues (CD39 enzymatic activity) | number of complete response when combined with gemcitabine, in comparison to gemcitabine alone (MC38 cancer cell line; Experiment 1 (FIG. 6)) | improvement of anti-tumor effect over the comparator named in the value (MC38 cancer cell line; Experiment 1 (FIG. 6), triple vs gemcitabine alone p<0.05 when control group was excluded) | improvement of anti-tumor efficacy over the comparator named in the value (MC38 cancer cell line; Experiment 2 (FIG. 7), difference marginally significant, p<0.1, control group excluded) | number of complete response (CR) on combination (MC38 cancer cell line; Experiment 3 (FIG. 8)) | improvement of anti-tumor effect over the comparator named in the value (MC38 cancer cell line; Experiment 3 (FIG. 8), triple vs gemcitabine alone marginally significant p<0.1, control group excluded) | improvement of the anti-tumor efficacy of gemcitabine (MC38 cancer cell line; gemcitabine +/- molPH5201 experiment (FIG. 5)) | tumor growth compared to the control group (MC38 cancer cell line; gemcitabine +/- molPH5201 experiment (FIG. 5), gemcitabine 25 mg/kg, molPH5201 400 μg/mouse, p<0.001 where significant) | improvement of anti-tumor efficacy over the comparator named in the value (MC38 cancer cell line; pooled analysis of three experiments (FIG. 9), n=31/group, p<0.05 where improved, linear-mixed effect model)
1 | IPH5201 (humanized anti-CD39 antibody having the respective heavy and light chain amino acid sequences of SEQ ID NOS: 10 and 11) (antibody, human IgG1, kappa, V domains shown) VH: QVQLVQSGAEVKKPGASVKVSCKASGYTFTDYNMHWVRQAPGQRLEWIGYIVPLNGGSTFNQKFKGRATITVDTSARTAYMELSSLRSEDTAVYYCARGGTRFAYWGQGTLVTVSS VL: DIVMTQSPDSLAVSLGERATINCRASESVDNFGVSFMYWFQQKPGQPPKLLIYGASNQGSGVPDRFSGSGSGTDFTLTISSLQAEDVAVYYCQQTKEVPYTFGGGTKVEIKR | 2.44 | – | – | – | – | – | – | – | – | – | –
2 | molPH5201: antibody having the VH and VL of SEQ ID NOS: 8 and 9 and murine constant domains, Fc substituted to eliminate mouse Fcγ receptor binding (antibody, V domains shown, murine constant domains, Fc-silenced) VH: QVQLVQSGAEVKKPGASVKVSCKASGYTFTDYNMHWVRQAPGQRLEWIGYIVPLNGGSTFNQKFKGRATITVDTSARTAYMELSSLRSEDTAVYYCARGGTRFAYWGQGTLVTVSS VL: DIVMTQSPDSLAVSLGERATINCRASESVDNFGVSFMYWFQQKPGQPPKLLIYGASNQGSGVPDRFSGSGSGTDFTLTISSLQAEDVAVYYCQQTKEVPYTFGGGTKVEIK | – | less intratumoral adenosine | decreased CD39 enzymatic activity | increased the number of complete response | Neither anti-PD-L1 nor molPH5201 improved the anti-tumor effect of gemcitabine; also recorded: did not statistically significantly improve gemcitabine+anti-PD-L1 efficacy | tended to improve the anti-tumor efficacy of the combination gemcitabine+anti-PD-L1 | did not increase the number of CR | Neither anti-PD-L1 nor molPH5201 improved the anti-tumor effect of gemcitabine; also recorded: did not statistically significantly improve gemcitabine+anti-PD-L1 efficacy | did not improve the anti-tumor efficacy of gemcitabine | did not modify tumor growth | neither anti-PD-L1 nor molPH5201 improved the anti-tumor effect of gemcitabine; also recorded: improved the anti-tumor efficacy of the gemcitabine+anti-PD-L1 combination
